# In EP4772193A1 (Teijin Pharma Limited, dated 2026):
# Numbering of substitutions follows the chain as printed. Numbers in names are those of the source.
# T1: recombinant human soluble gpNMB (recombinant human gpNMB-FLAG-His) (human, UniProt Q14956 23-498)
# T1 sequence: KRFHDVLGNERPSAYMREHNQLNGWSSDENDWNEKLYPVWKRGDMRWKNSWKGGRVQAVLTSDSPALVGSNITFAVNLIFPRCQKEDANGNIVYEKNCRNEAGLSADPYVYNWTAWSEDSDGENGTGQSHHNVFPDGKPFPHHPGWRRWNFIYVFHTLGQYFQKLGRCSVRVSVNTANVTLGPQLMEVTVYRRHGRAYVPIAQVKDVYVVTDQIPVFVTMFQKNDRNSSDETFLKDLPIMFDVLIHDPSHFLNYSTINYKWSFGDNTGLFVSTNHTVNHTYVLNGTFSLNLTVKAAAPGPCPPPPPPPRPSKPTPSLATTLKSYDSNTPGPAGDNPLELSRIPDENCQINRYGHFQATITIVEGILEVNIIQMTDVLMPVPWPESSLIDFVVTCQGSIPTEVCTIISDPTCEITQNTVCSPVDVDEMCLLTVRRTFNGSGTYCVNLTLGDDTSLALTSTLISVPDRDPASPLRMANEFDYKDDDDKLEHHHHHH
# B1: hGPN18-2_H2L3 VH D111A (antibody, V domains shown)
# VH: QVQLVQSGPGLVQPTQTLTLTCSFSGFSLSTSVMGVGWIRQPSGKGLEWLADIWWDDDKDYNPSLKSRLTISKDTSKNQVVLTMTNMDTVDTATYYCARTYYSNYEYYGMAYWGQGTLVTVSS
# VL: DIVMTQSPDSLAVSLGERATINCRSSQTIILSNGNTYLEWYQQKPGQPPKLLIYKVSNRFSGVPDRFSGSGSGTDFTLTISSLQAEDVAVYYCFQGSHVPFTFGSGTKLEIKR
# B2: hGPN18-2_H2L3 VH S64A (antibody, V domains shown)
# VH: B1 VH with S64A, A111D
# VL: B1 VL
# B3: hGPN18-2_H2L3 VH R99A (antibody, V domains shown)
# VH: B1 VH with R99A, A111D
# VL: B1 VL
# B4: hGPN18-2_H2L3 VH Y108A (antibody, V domains shown)
# VH: B1 VH with Y108A, A111D
# VL: B1 VL
# B5: hGPN18-2_H2L3 VH Y61A (antibody, V domains shown)
# VH: B1 VH with Y61A, A111D
# VL: B1 VL
# B6: hGPN18-2_H2L3 VH Y102A (antibody, V domains shown)
# VH: B1 VH with Y102A, A111D
# VL: B1 VL
# B7: hGPN18-2_H2L3 VH Y101A (antibody, V domains shown)
# VH: B1 VH with Y101A, A111D
# VL: B1 VL
# B8: hGPN18-2_H2L3 VH Y107A (antibody, V domains shown)
# VH: B1 VH with Y107A, A111D
# VL: B1 VL
# B9: hGPN18-2_H2L3 VH Y112A (antibody, V domains shown)
# VH: B1 VH with A111D, Y112A
# VL: B1 VL
# B10: hGPN18-2_H2L3 VH N62A (antibody, V domains shown)
# VH: B1 VH with N62A, A111D
# VL: B1 VL
# B11: hGPN18-2_H2L3 VH E106A (antibody, V domains shown)
# VH: B1 VH with E106A, A111D
# VL: B1 VL
# B12: hGPN18-2_H2L3 VH K66A (antibody, V domains shown)
# VH: B1 VH with K66A, A111D
# VL: B1 VL
# B13: hGPN18-2_H2L3 VH G109A (antibody, V domains shown)
# VH: B1 VH with G109A, A111D
# VL: B1 VL
# B14: hGPN18-2_H2L3 VH M110A (antibody, V domains shown)
# VH: B1 VH with M110A, A111D
# VL: B1 VL
# B15: hGPN18-2_H2L3 VH Y105A (antibody, V domains shown)
# VH: B1 VH with Y105A, A111D
# VL: B1 VL
# B16: hGPN18-2_H2L3 VH T100A (antibody, V domains shown)
# VH: B1 VH with T100A, A111D
# VL: B1 VL
# B17: hGPN18-2_H2L3 VH S103A (antibody, V domains shown)
# VH: B1 VH with S103A, A111D
# VL: B1 VL
# B18: hGPN18-2_H2L3 VH S67A (antibody, V domains shown)
# VH: B1 VH with S67A, A111D
# VL: B1 VL
# B19: hGPN18-2_H2L3 VH N104A (antibody, V domains shown)
# VH: B1 VH with N104A, A111D
# VL: B1 VL
# B20: hGPN18-2_H2L3 VH L65A (antibody, V domains shown)
# VH: B1 VH with L65A, A111D
# VL: B1 VL
# B21: hGPN18-2_H2L3 VH P63A (antibody, V domains shown)
# VH: B1 VH with P63A, A111D
# VL: B1 VL
# B22: hGPN18-2_H2L3 VH G37A (antibody, V domains shown)
# VH: B1 VH with G37A, A111D
# VL: B1 VL
# B23: hGPN18-2_H2L3 VH K59A (antibody, V domains shown)
# VH: B1 VH with K59A, A111D
# VL: B1 VL
# B24: hGPN18-2_H2L3 VH L29A (antibody, V domains shown)
# VH: B1 VH with L29A, A111D
# VL: B1 VL
# B25: hGPN18-2_H2L3 VH W55A (antibody, V domains shown)
# VH: B1 VH with W55A, A111D
# VL: B1 VL
# B26: hGPN18-2_H2L3 VH S30A (antibody, V domains shown)
# VH: B1 VH with S30A, A111D
# VL: B1 VL
# B27: hGPN18-2_H2L3 VH S28A (antibody, V domains shown)
# VH: B1 VH with S28A, A111D
# VL: B1 VL
# B28: hGPN18-2_H2L3 VH V36A (antibody, V domains shown)
# VH: B1 VH with V36A, A111D
# VL: B1 VL
# B29: hGPN18-2_H2L3 VH S32A (antibody, V domains shown)
# VH: B1 VH with S32A, A111D
# VL: B1 VL
# B30: hGPN18-2_H2L3 VH V33A (antibody, V domains shown)
# VH: B1 VH with V33A, A111D
# VL: B1 VL
# B31: hGPN18-2_H2L3 VH M34A (antibody, V domains shown)
# VH: B1 VH with M34A, A111D
# VL: B1 VL
# B32: hGPN18-2_H2L3 VH W54A (antibody, V domains shown)
# VH: B1 VH with W54A, A111D
# VL: B1 VL
# B33: hGPN18-2_H2L3 VH I53A (antibody, V domains shown)
# VH: B1 VH with I53A, A111D
# VL: B1 VL
# B34: hGPN18-2_H2L3 VH T31A (antibody, V domains shown)
# VH: B1 VH with T31A, A111D
# VL: B1 VL
# Target: T1, recombinant human soluble gpNMB …
# Experiment: antigen ELISA
row,EC50 [nM],Binder
1,11.3,B1
2,3.59,B2
3,10.6,B3
4,4.7,B4
5,7.55,B5
6,49.1,B6
7,7.68,B7
8,60.9,B8
9,3.73,B9
10,4.58,B10
11,10.8,B11
12,4.96,B12
13,10.5,B13
14,23.4,B14
15,15.6,B15
16,8.44,B16
17,4.04,B17
18,4.25,B18
19,5.62,B19
20,5.04,B20
21,12,B21

# Target: T1, recombinant human soluble gpNMB …
# Experiment: antigen ELISA, vs hGPN18-2_H2L3
row,Relative binding activity,Binder
1,0.62,B1
2,1.09,B2
3,0.37,B3
4,0.91,B4
5,0.7,B5
6,0.07,B6
7,0.61,B7
8,0.06,B8
9,1.05,B9
10,0.97,B10
11,0.64,B11
12,0.96,B12
13,0.61,B13
14,0.41,B14
15,0.47,B15
16,0.47,B16
17,0.94,B17
18,1.01,B18
19,0.8,B19
20,0.94,B20
21,0.43,B21

# Target: T1, recombinant human soluble gpNMB …
# Experiment: antigen ELISA, vs hGPN18-2_H2L3
# Remark: another data set of the same source
row,Relative binding activity,Binder
1,0.87,B22
2,0.78,B23
3,0.82,B24
4,0.66,B25
5,0.97,B26
6,0.88,B27
7,0.92,B28
8,0.78,B29
9,0.55,B30
10,0.91,B31
11,0.2,B32
12,0.6,B33
13,0.97,B34

# Target: T1, recombinant human soluble gpNMB …
# Experiment: antigen ELISA
# Remark: another data set of the same source
row,EC50 [nM],Binder
1,3.32,B22
2,4.42,B23
3,4.41,B24
4,8.36,B25
5,6.6,B26
6,3.22,B27
7,3.43,B28
8,4.31,B29
9,8.88,B30
10,3.58,B31
11,38,B32
12,6.94,B33
13,3.12,B34
